This is an account of results in patent US20180155451A1 (published 2018).

The target in one test is T1, FcγRIa (human, UniProt P12314 16-292).
T1 construct: extracellular domain; also called FcgRI; 1a
Put plainly: SPR, captured antibody; relative to GpH7-A5/GpH7-B3/GpL16-k0.

The target of another test is T2, FcγRIIb (human, UniProt P31994 43-217).
T2 construct: extracellular domain; also called FcgRIIb; 2b
T2 sequence (looked up): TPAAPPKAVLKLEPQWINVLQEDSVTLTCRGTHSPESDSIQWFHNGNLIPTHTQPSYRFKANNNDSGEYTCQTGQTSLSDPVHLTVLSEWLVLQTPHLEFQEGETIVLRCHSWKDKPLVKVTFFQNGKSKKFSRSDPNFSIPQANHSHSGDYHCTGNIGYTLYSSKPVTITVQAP
Described as above.

T1 sequence (P12314 16-292): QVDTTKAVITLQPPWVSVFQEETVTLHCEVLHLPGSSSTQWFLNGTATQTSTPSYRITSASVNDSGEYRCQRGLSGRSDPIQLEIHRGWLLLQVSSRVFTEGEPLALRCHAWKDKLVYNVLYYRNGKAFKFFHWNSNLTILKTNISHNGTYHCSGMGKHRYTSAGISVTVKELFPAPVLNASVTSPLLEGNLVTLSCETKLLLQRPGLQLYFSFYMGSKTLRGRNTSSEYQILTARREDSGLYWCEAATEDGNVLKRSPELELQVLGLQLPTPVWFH

B1: GpH7-A5/GpH7-B3 variant (L235_02A)/GpL16-k0 (antibody, human IgG1, kappa)
heavy 1: not shown
heavy 2: not shown
light: DIVMTQSPLSLPVTPGEPASISCQASESLVHSNRNTYLHWYLQKPGQSPQLLIYKVSNRFSGVPDRFSGSGSGTDFTLKISRVEAEDVGVYYCSQNTHVPPTFGQGTKVEIERTVAAPSVFIFPPSDEQLKSGTASVVCLLNNFYPREAKVQWKVDNALQSGNSQESVTEQDSKDSTYSLSSTLTLSKADYEKHKVYACEVTHQGLSSPVTKSFNRGEC
notes: IgG1 heterodimer, mutation in the GpH7-B3 chain only; also called He Ab
For B1, the He/Con_1a in the test with FcγRIa was 92.2 relative, HeCon Ab = 100. Also, in the test with FcγRIIb, the He/Con_2b is 63 relative, HeCon Ab = 100.

B2: GpH7-A5/GpH7-B3 variant (L235_14T)/GpL16-k0 (antibody, human IgG1, kappa)
heavy 1: not shown
heavy 2: not shown
light: DIVMTQSPLSLPVTPGEPASISCQASESLVHSNRNTYLHWYLQKPGQSPQLLIYKVSNRFSGVPDRFSGSGSGTDFTLKISRVEAEDVGVYYCSQNTHVPPTFGQGTKVEIERTVAAPSVFIFPPSDEQLKSGTASVVCLLNNFYPREAKVQWKVDNALQSGNSQESVTEQDSKDSTYSLSSTLTLSKADYEKHKVYACEVTHQGLSSPVTKSFNRGEC
notes: as for B1
For the molecule B2, the He/Con_1a in the test with FcγRIa is 88.7 relative, HeCon Ab = 100. Also, the He/Con_2b with FcγRIIb is 46.8 relative, HeCon Ab = 100.

B3: GpH7-A5/GpH7-B3 variant (L235_05P)/GpL16-k0 (antibody, human IgG1, kappa)
heavy 1: not shown
heavy 2: not shown
light: DIVMTQSPLSLPVTPGEPASISCQASESLVHSNRNTYLHWYLQKPGQSPQLLIYKVSNRFSGVPDRFSGSGSGTDFTLKISRVEAEDVGVYYCSQNTHVPPTFGQGTKVEIERTVAAPSVFIFPPSDEQLKSGTASVVCLLNNFYPREAKVQWKVDNALQSGNSQESVTEQDSKDSTYSLSSTLTLSKADYEKHKVYACEVTHQGLSSPVTKSFNRGEC
notes: as for B1
With B3, the He/Con_1a in the test with FcγRIa is 94.7 relative, HeCon Ab = 100. Besides, the He/Con_2b with FcγRIIb is 54.7 relative, HeCon Ab = 100.

B4: GpH7-A5/GpH7-B3 variant (L235_06M)/GpL16-k0 (antibody, human IgG1, kappa)
heavy 1: not shown
heavy 2: not shown
light: DIVMTQSPLSLPVTPGEPASISCQASESLVHSNRNTYLHWYLQKPGQSPQLLIYKVSNRFSGVPDRFSGSGSGTDFTLKISRVEAEDVGVYYCSQNTHVPPTFGQGTKVEIERTVAAPSVFIFPPSDEQLKSGTASVVCLLNNFYPREAKVQWKVDNALQSGNSQESVTEQDSKDSTYSLSSTLTLSKADYEKHKVYACEVTHQGLSSPVTKSFNRGEC
notes: as for B1
As to B4, in the test with FcγRIa, the He/Con_1a was 98 relative, HeCon Ab = 100. The He/Con_2b with FcγRIIb is 81 relative, HeCon Ab = 100.

B5: GpH7-A5/GpH7-B3 variant (L235_19Q)/GpL16-k0 (antibody, human IgG1, kappa)
heavy 1: not shown
heavy 2: not shown
light: DIVMTQSPLSLPVTPGEPASISCQASESLVHSNRNTYLHWYLQKPGQSPQLLIYKVSNRFSGVPDRFSGSGSGTDFTLKISRVEAEDVGVYYCSQNTHVPPTFGQGTKVEIERTVAAPSVFIFPPSDEQLKSGTASVVCLLNNFYPREAKVQWKVDNALQSGNSQESVTEQDSKDSTYSLSSTLTLSKADYEKHKVYACEVTHQGLSSPVTKSFNRGEC
notes: as for B1
B5: in the test with FcγRIa, the He/Con_1a is 94 relative, HeCon Ab = 100. The He/Con_2b with FcγRIIb is 42.6 relative, HeCon Ab = 100.

B6: GpH7-A5/GpH7-B3 variant (L235_18N)/GpL16-k0 (antibody, human IgG1, kappa)
heavy 1: not shown
heavy 2: not shown
light: DIVMTQSPLSLPVTPGEPASISCQASESLVHSNRNTYLHWYLQKPGQSPQLLIYKVSNRFSGVPDRFSGSGSGTDFTLKISRVEAEDVGVYYCSQNTHVPPTFGQGTKVEIERTVAAPSVFIFPPSDEQLKSGTASVVCLLNNFYPREAKVQWKVDNALQSGNSQESVTEQDSKDSTYSLSSTLTLSKADYEKHKVYACEVTHQGLSSPVTKSFNRGEC
notes: as for B1
On to B6, for which, in the test with FcγRIa, the He/Con_1a is 92.2 relative, HeCon Ab = 100. The He/Con_2b in the test with FcγRIIb is 54.9 relative, HeCon Ab = 100.

B7: GpH7-A5/GpH7-B3 variant (L235_03V)/GpL16-k0 (antibody, human IgG1, kappa)
heavy 1: not shown
heavy 2: not shown
light: DIVMTQSPLSLPVTPGEPASISCQASESLVHSNRNTYLHWYLQKPGQSPQLLIYKVSNRFSGVPDRFSGSGSGTDFTLKISRVEAEDVGVYYCSQNTHVPPTFGQGTKVEIERTVAAPSVFIFPPSDEQLKSGTASVVCLLNNFYPREAKVQWKVDNALQSGNSQESVTEQDSKDSTYSLSSTLTLSKADYEKHKVYACEVTHQGLSSPVTKSFNRGEC
notes: as for B1
B7: the He/Con_1a in the test with FcγRIa was 94.7 relative, HeCon Ab = 100. In addition, in the test with FcγRIIb, the He/Con_2b is 66.4 relative, HeCon Ab = 100.

B8: GpH7-A5/GpH7-B3 variant (P271_03V)/GpL16-k0 (antibody, human IgG1, kappa)
heavy 1: not shown
heavy 2: not shown
light: DIVMTQSPLSLPVTPGEPASISCQASESLVHSNRNTYLHWYLQKPGQSPQLLIYKVSNRFSGVPDRFSGSGSGTDFTLKISRVEAEDVGVYYCSQNTHVPPTFGQGTKVEIERTVAAPSVFIFPPSDEQLKSGTASVVCLLNNFYPREAKVQWKVDNALQSGNSQESVTEQDSKDSTYSLSSTLTLSKADYEKHKVYACEVTHQGLSSPVTKSFNRGEC
notes: as for B1
For B8, the He/Con_1a in the test with FcγRIa is 102 relative, HeCon Ab = 100. Further, the He/Con_2b with FcγRIIb is 74.8 relative, HeCon Ab = 100.

B9: GpH7-A5/GpH7-B3 variant (S239_14T)/GpL16-k0 (antibody, human IgG1, kappa)
heavy 1: not shown
heavy 2: not shown
light: DIVMTQSPLSLPVTPGEPASISCQASESLVHSNRNTYLHWYLQKPGQSPQLLIYKVSNRFSGVPDRFSGSGSGTDFTLKISRVEAEDVGVYYCSQNTHVPPTFGQGTKVEIERTVAAPSVFIFPPSDEQLKSGTASVVCLLNNFYPREAKVQWKVDNALQSGNSQESVTEQDSKDSTYSLSSTLTLSKADYEKHKVYACEVTHQGLSSPVTKSFNRGEC
notes: as for B1
For B9, the He/Con_1a with FcγRIa is 101 relative, HeCon Ab = 100. For the same molecule, the He/Con_2b with FcγRIIb was 97.3 relative, HeCon Ab = 100.

B10: GpH7-A5/GpH7-B3 variant (L235_11K)/GpL16-k0 (antibody, human IgG1, kappa)
heavy 1: not shown
heavy 2: not shown
light: DIVMTQSPLSLPVTPGEPASISCQASESLVHSNRNTYLHWYLQKPGQSPQLLIYKVSNRFSGVPDRFSGSGSGTDFTLKISRVEAEDVGVYYCSQNTHVPPTFGQGTKVEIERTVAAPSVFIFPPSDEQLKSGTASVVCLLNNFYPREAKVQWKVDNALQSGNSQESVTEQDSKDSTYSLSSTLTLSKADYEKHKVYACEVTHQGLSSPVTKSFNRGEC
notes: as for B1
As to B10, the He/Con_1a in the test with FcγRIa was 79.9 relative, HeCon Ab = 100. The He/Con_2b in the test with FcγRIIb was 6.3 relative, HeCon Ab = 100.

B11: GpH7-A5/GpH7-B3 variant (L235_13S)/GpL16-k0 (antibody, human IgG1, kappa)
heavy 1: not shown
heavy 2: not shown
light: DIVMTQSPLSLPVTPGEPASISCQASESLVHSNRNTYLHWYLQKPGQSPQLLIYKVSNRFSGVPDRFSGSGSGTDFTLKISRVEAEDVGVYYCSQNTHVPPTFGQGTKVEIERTVAAPSVFIFPPSDEQLKSGTASVVCLLNNFYPREAKVQWKVDNALQSGNSQESVTEQDSKDSTYSLSSTLTLSKADYEKHKVYACEVTHQGLSSPVTKSFNRGEC
notes: as for B1
Regarding B11, the He/Con_1a in the test with FcγRIa was 90.5 relative, HeCon Ab = 100. For the same molecule, the He/Con_2b in the test with FcγRIIb was 48.2 relative, HeCon Ab = 100.

B12: GpH7-A5/GpH7-B3 variant (P271_02A)/GpL16-k0 (antibody, human IgG1, kappa)
heavy 1: not shown
heavy 2: not shown
light: DIVMTQSPLSLPVTPGEPASISCQASESLVHSNRNTYLHWYLQKPGQSPQLLIYKVSNRFSGVPDRFSGSGSGTDFTLKISRVEAEDVGVYYCSQNTHVPPTFGQGTKVEIERTVAAPSVFIFPPSDEQLKSGTASVVCLLNNFYPREAKVQWKVDNALQSGNSQESVTEQDSKDSTYSLSSTLTLSKADYEKHKVYACEVTHQGLSSPVTKSFNRGEC
notes: as for B1
In the case of B12, the He/Con_1a with FcγRIa was 104 relative, HeCon Ab = 100. Besides, the He/Con_2b with FcγRIIb was 88 relative, HeCon Ab = 100.

B13: GpH7-A5/GpH7-B3 variant (P271_04F)/GpL16-k0 (antibody, human IgG1, kappa)
heavy 1: not shown
heavy 2: not shown
light: DIVMTQSPLSLPVTPGEPASISCQASESLVHSNRNTYLHWYLQKPGQSPQLLIYKVSNRFSGVPDRFSGSGSGTDFTLKISRVEAEDVGVYYCSQNTHVPPTFGQGTKVEIERTVAAPSVFIFPPSDEQLKSGTASVVCLLNNFYPREAKVQWKVDNALQSGNSQESVTEQDSKDSTYSLSSTLTLSKADYEKHKVYACEVTHQGLSSPVTKSFNRGEC
notes: as for B1
For the molecule B13, the He/Con_1a in the test with FcγRIa is 102 relative, HeCon Ab = 100. Further, the He/Con_2b in the test with FcγRIIb was 59.5 relative, HeCon Ab = 100.

B14: GpH7-A5/GpH7-B3 variant (S239_19Q)/GpL16-k0 (antibody, human IgG1, kappa)
heavy 1: not shown
heavy 2: not shown
light: DIVMTQSPLSLPVTPGEPASISCQASESLVHSNRNTYLHWYLQKPGQSPQLLIYKVSNRFSGVPDRFSGSGSGTDFTLKISRVEAEDVGVYYCSQNTHVPPTFGQGTKVEIERTVAAPSVFIFPPSDEQLKSGTASVVCLLNNFYPREAKVQWKVDNALQSGNSQESVTEQDSKDSTYSLSSTLTLSKADYEKHKVYACEVTHQGLSSPVTKSFNRGEC
notes: as for B1
On to B14, for which the He/Con_1a in the test with FcγRIa is 101 relative, HeCon Ab = 100. The He/Con_2b in the test with FcγRIIb was 86.1 relative, HeCon Ab = 100.
